Ends that are not written are not given here.
T1: KDM5A PHD3 reader domain (human, UniProt P29375 1609-1659)
T1 construct: KDM5A, human, third PHD zinc finger (PHD3)
T1 sequence: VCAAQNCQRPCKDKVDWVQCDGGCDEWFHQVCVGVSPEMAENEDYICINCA

T2: TAF3 PHD reader domain (human, UniProt Q5VWG9 855-915)
T2 sequence: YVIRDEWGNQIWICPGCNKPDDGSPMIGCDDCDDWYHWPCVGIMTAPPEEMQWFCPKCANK

T3: SGF29 tandem tudor domain (TTD) reader (human, UniProt Q96ES7 115-293)
T3 construct: SGF29, human, tandem tudor domain; also called SGF29TTD
T3 sequence: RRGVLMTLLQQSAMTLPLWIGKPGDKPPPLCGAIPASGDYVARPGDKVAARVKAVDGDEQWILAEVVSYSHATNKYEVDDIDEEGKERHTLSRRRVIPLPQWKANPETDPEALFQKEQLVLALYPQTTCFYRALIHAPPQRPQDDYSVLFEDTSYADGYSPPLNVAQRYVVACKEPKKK

T4: KDM4A tandem tudor domain (TTD) reader (human, UniProt O75164 895-1011)
T4 construct: KDM4A, human, tandem tudor domain; also called KDM4ATTD
T4 sequence: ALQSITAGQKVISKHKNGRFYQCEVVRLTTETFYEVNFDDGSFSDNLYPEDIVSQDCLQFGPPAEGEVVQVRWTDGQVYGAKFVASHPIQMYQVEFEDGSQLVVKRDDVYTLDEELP


Assays:
Test in all cases: ITC; 19 injections of histone peptide (0.3–1.2 mM) into reader protein (22–100 µM), 298.15 K, same buffer as used in size exclusion chromatography, one-site fit, 3–5 repeats
Conditions in all cases: both partners purified
[1] = biological target: T1, KDM5A PHD3 reader domain
[2] = biological target: T2, TAF3 PHD reader domain
[3] = biological target: BPTF PHD reader domain (human, UniProt Q12830 2865-3033)
[4] = biological target: T3, SGF29 tandem tudor domain (TTD) reader
[5] = biological target: T4, KDM4A tandem tudor domain (TTD) reader

Binder	Kd [1]	dH [1]	Kd [2]	dH [2]	dH [3]	Kd [4]	dH [4]	Kd [5]	dH [5]	Kd [3]
ARTKQTARKS (trimethyllysine (Kme3) at position 4, histone H3, residues 1-10, printed as ART(Kme3/KCme3)QTARKS; also called 1–10 H3K4me3; source: synthetic peptide (solid-phase peptide synthesis, preparative HPLC)) [10-mer histone H3 peptide bearing trimethyllysine at position 4 (H3K4me3)]	71 ± 8 nM	-10.7 ± 0.1 kcal/mol	84 ± 12 nM	-10.7 ± 0.1 kcal/mol	-12.4 ± 0.1 kcal/mol	2600 ± 300 nM	-8 ± 0.1 kcal/mol	6600 ± 800 nM	-13 ± 0.2 kcal/mol	–
ARTCQTARKS (not fully specified (residue 4), histone H3, residues 1-10, printed as ART(Kme3/KCme3)QTARKS; position 4 is a cysteine alkylated to trimethylthialysine; The letter C at position 4 stands for the alkylated cysteine (trimethylthialysine), not a free cysteine; also called 1–10 H3KC4me3) [10-mer histone H3 peptide bearing trimethylthialysine at position 4 (H3KC4me3)]	150 ± 200 nM	-9.6 ± 0.1 kcal/mol	42 ± 7 nM	-10.8 ± 0.1 kcal/mol	-9 ± 0.1 kcal/mol	6100 ± 700 nM	-5.8 ± 0.1 kcal/mol	3100 ± 600 nM	-14.8 ± 0.2 kcal/mol	3800 ± 500 nM

— paper PMC7221964, “Comparison of Molecular Recognition of Trimethyllysine and Trimethylthialysine by Epigenetic Reader Proteins” (Molecules, 2020)
